Assay results as given in paper PMC12846656.

Columns and labels:
[1] = test system: WT Np (SARS-CoV-2 (ancestral, WA-1/2020 isolate)); assay: fluorescence anisotropy salt titration
HIV-1 Gag WT (HIV-1) = assay: fluorescence anisotropy salt titration

HIV-1 TARpolyA
Kd [1]: 260 µM

HIV-1 WT Psi
Kd [1]: 38 µM

SL1-4
Kd (HIV-1 Gag WT (HIV-1)): 120000 µM | Kd [1]: 260 µM

SL1-5
Kd (HIV-1 Gag WT (HIV-1)): 21000 µM | Kd [1]: 36 µM

SL5
Kd (HIV-1 Gag WT (HIV-1)): 140 µM | Kd [1]: 500 µM
